The nature of this series: yeast display, Sf9 membrane polyspecificity reagent, FACS + sequencing; frameworks hold sequencing errors. The gist of the method:
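Galactose-induced (36–48 hours) yeast carrying a synthetic nanobody display library were exposed to 10% biotinylated, detergent-solubilized Sf9 membrane reagent at 4 °C for 1 hour. FACS followed streptavidin microbead enrichment, using low and high (top ~1%) gates for expression (anti-HA) and reagent binding (streptavidin). Colony PCR, MiSeq 2 × 250 sequencing and CDR-length filtering followed. Labels for polyreactivity reflect the gate of origin.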
With “QGHLVESGGGLVHAGGSLRLSCAASGRIFDVNAMGWYRQAPWKERELVAAISSGGNTKYADSVKGRFTISRDNAKNTVYLQMNSLKPEDTAVYYCIADGKAGGDYDYWGQGTQVTVSS”, the “polyreactivity (PSR sort gate)” value is “low polyreactivity”. The result for “QGQHVDSGGVLVQAGGSLRLSCAASGITVYLYAMGWYRPAPGKEREMVATISRSGGSTYADSVKGRFTISRDNAKNTVYLQMYSLKPEDSAVYYCNADVLSTGYIAYDYWGQGTQVTVSS” reads “low polyreactivity”; that for “QGQLEESGGGLVQAGGSLRLSCAASGFIFGGNDMGWYRQAPGKERELVAAISKSGGRTYYADSVKGRFTISRDNAKNTVYLQMNSLKPEDTAVYYCAAVPGRTAEDYGEDYWGQGTQVTVSS”, “high polyreactivity”.

Regarding “QGQLEESGGGLVQAGGSLRLSCAAYGRIFYEYAMGLYRQAPGKERELVAISTAGCNTYYADSVKGRFTISRDNGKNTDYLQMNILKPEDTAVYYCAARLQYYPYYYWGQGTQVTVSS”, the “polyreactivity (PSR sort gate)” value is reported as “high polyreactivity”. The value for “QGQLGESGGGLVQAGGSLRLSCAASGRIFNCYGMGWYRQAPGKERELVATISKSSDITYYADSVKGRFTISRDIAKNNVYLQMNSLRPEDTAVYYCAAKVRQWRQGSYSSQYDYWGQGTQVTVSS” was “high polyreactivity”.

Regarding “QGQLGESGGGLVQAGGSLRLSCAASGSIFPEYDMGWYRQAPGNERELDAAISWSGGSTYYADSVKGRFTISRANAKNTVSLQRNSLKPVDTAVYYCNRVPSWRIDYDYWGQGTQVSVSS”, the “polyreactivity (PSR sort gate)” value is “low polyreactivity”. The value for “QGQLVESGAGLVQAGGSLRLSCAASGITLHGYVMGWYRQAPGKETELVAAITSSGGRTYYADSVKGRFTISRDNAKNTVYLQMNRLKPVDTAVYYCAARIYYYAFSGYYWGQGTQVTVSS” was “high polyreactivity”; that for “QGQLVESGGGLGQAGGTLRLSCAASGFTFSFYAMGWYRQAPGKERELVAAISWSGGSTYYADSVKGRFTISRDNAKNTVYLQMNSLKPEDTAVYYCAAKLLYVGRYGYWGHGTQVTVSS” was “high polyreactivity”. The result for “QGQLVESGGGLLQAGGSLSLSCAATGFTFTENAMGWYRQEPGKEREFVAYISSSGDSTYYSDSVKGRFTISRDNAKNTVYLQMNSLKPEDTAVYYCYRDLVYDYYYVPQPSRFDYWGQGTQVTLSS” reads “high polyreactivity”; that for “QGQLVESGGGLVQAGGSLLLICAASGGTFLTYAMGWYRQAPGKERELVAAITSGGSTKYADSVKGRFTISRDNAKNTVYLQMNSLKPEDTAVYYCAADSVRDYVLWWAYSRSDYWGQGTQVTVSS”, “low polyreactivity”; that for “QGQLVESGGGLVQAGGSLRLKCAASVFTFQFYDMGWYRQAPGKEMEFVATITWRAGSTYYADSVKGRFTISRDNAKNTVYLQMNSLKPEDTAVYYCIADYYRHSLDYDYVGYDYWGQGTQVTVSS”, “low polyreactivity”. The result for “QGQLVESGGGLVQAGGSLRLSCAASGFTFAPNAMAWYRQAPGKERELVAAISSASSTYYADSLKGRFTISRDNAKNTVYLQMNSLKPEDTAVYYCAAREGWGFYYWGQGTQVTVSS” reads “high polyreactivity”; that for “QGQLVESGGGLVQAGGSLRLSCAASGFTFDYYAMGWYRQATGKEREFVAAISSRGDDTYYADSVKGRFTISRDNAKNTVYLQMNSLKPEDTAVYYCAALDPWKPEYDYWGQGTQVTLSS”, “high polyreactivity”. Take “QGQLVESGGGLVQAGGSLRLSCAASGFTFNYYAMGWSRQAPGKERELVAAISWRGGSTSYADSVKGRFTISRDNAKNTVYLQMNSLKPEDTAVYYCNAGYSGIYYFAGDYWGQGTQVTVSS”: the “polyreactivity (PSR sort gate)” value is “high polyreactivity”.

For “QGQLVESGGGLVQAGGSLRLSCAASGFTFQYYAMGWYRQAPGKDRELVAALSSSGGRTFYADSVKGRFTISRDNAKNTVYLQMNSLKAEDTAVYYCAAVWYGFLYYYWGQGTQVTVSS”, the “polyreactivity (PSR sort gate)” value is on record as “high polyreactivity”.

For the sequence “QGQLVESGGGLVQAGGSLRLSCAASGFTFSYNVMGWYRQAPGKERELVPAINWSGGRTYYADSVKGRFTISRDNAKNTVYLQMNSLKPEDTAVYYCAARVYRGTARLIYDYWGQGTQVTVSS”, the “polyreactivity (PSR sort gate)” value is listed as “high polyreactivity”. The result for “QGQLVESGGGLVQAGGSLRLSCAASGFTFYYNAMGWYRQAPGQERELVAAISTRGGNTYYADSVKGRFTISRDNAKNTVYLQMNSLKPEDTAVYYCARKIRREGRYDYWGQGTQVTVSS” reads “high polyreactivity”; that for “QGQLVESGGGLVQAGGSLRLSCAASGGTFEYNTMGWYRQAPGKERELVAAIRSSTVRTYYADSVKGRFTISRDNAKNTVYLQMNSLKPEDTAVYYCAATRYRKYWGQGTQVTVTS”, “high polyreactivity”.

As to “QGQLVESGGGLVQAGGSLRLSCAASGIIFTANVMGWYRQAPGKERELVAAITRGGNTYYADSVKGRFTISRDNAKNTVYLQMNSLKPEDTAVYYCAAADYTTPVPYGRKGFDYWGQGTQVTVSS”, the “polyreactivity (PSR sort gate)” value is given as “low polyreactivity”.

“QGQLVESGGGLVQAGGSLRLSCAASGLIFYPNGMGWYREAPGKERELVAAITYSDGSTYYADSVKGRFTISRDNAKNTVYLQMNSLKAEDTAVYYCNRVTRWTYNYWGQGTQVTVSS”: the “polyreactivity (PSR sort gate)” value is “high polyreactivity”.

As to “QGQLVESGGGLVQAGGSLRLSCAASGLTFKYYTMGWYRQAPGKEMELVAAINWSGASTYADSVKGRFTISRDNAKNTVYLQMNSLKPEDTAVYYCAADSPSWAPVREYDFWGQGTQVTVSS”, the “polyreactivity (PSR sort gate)” value is on record as “low polyreactivity”. The result for “QGQLVESGGGLVQAGGSLRLSCAASGNTFWYYAMGWYRQAPGKEREVVATISSSGGSTSYAHSVKGRFTISRDNAKNTVYLQMNSLKPVDTAVYYCAKPIRYFAAYPLTKGYYYWGQCTQVTVSS” reads “high polyreactivity”; that for “QGQLVESGGGLVQAGGSLRLSCAASGRIVGPNTMGWSRQAPGKERELVAAISSGGGTYYADSVKGRFTISRDNAKNTVYLQMNSLKPEDTAVYYCAADYTTLKLYYWFDYWGQGTHVTVSS”, “low polyreactivity”. The value for “QGQLVESGGGLVQAGGSLRLSCAASGRTFSVNDMGWYRQAPGKERELVAAMSFSGGRTYYADSVKGRFTISRDNAKNTVYLQMNSLKPEDTAVYYCAADIRGYDYWGQGTQVTVSS” was “high polyreactivity”; that for “QGQLVESGGGLVQAGGSLRLSCAASGSIFPDYAMGWYRQAPGKERELVAAITWRDDSTYYADSVKGRFTISRDNAKNTVYLQMNSLKPEDTAVYYCIASALDPLYAKDDYWGQGTQVTVSS” was “low polyreactivity”; that for “QGQLVESGGGLVQAGGSLRLSCAASGSIFPYNDMGWYRQAPRKERELFAAINSDGSTDYADSVKGRFTISRDNAKNTVYLLMKSLKPEDTAVYDCNGDYVATFLSPPTSVSYGYWGQVTQVTVSS” was “low polyreactivity”. The result for “QGQLVESGGGLVQAGGSLRLSCAASGSIFYRNAMGWYRQAPGKERELVAAISYSGGSTYYADSVKGRFTISRDNAKNTVYLQMNSLKPEDTAVYYCAKDYPTPISDYSRYYGYGYWGQGTQVTVSS” reads “low polyreactivity”. For the sequence “QGQLVESGGGLVQAGGSLRLSCAASGSTFPTNSMGWYRPAPGNDRELVAAITGGASTYYADSVKGRFTISRDNAKNTVYLQMNSLKPEDTAVYYCAADDSWFYYGYGYWGQGTQVTVSS”, the “polyreactivity (PSR sort gate)” value was “low polyreactivity”. The result for “QGQLVESGGGLVQAGGSLRLSCAASGTFSPYAMGWYRPAPGKERELVAVITSNTGRTYADSVKGRFTISRDNAKNTVYLQMNSLKPEDTAVYYCASRSTYRHWYRTGSRFDYWGQGTQVTVSS” reads “low polyreactivity”; that for “QGQLVESGGGLVQAGGSLRLSCAASGYIFNPNAMGWYRQGPGKERDLFAGITWRGDRTYYADSVKGRFTISRDNAKNTVYLQMNCLKPEDTAVYYCNGAGADRWSYSSNIRRYYYWGHGTQVTVSS”, “high polyreactivity”. The result for “QGQLVESGGGLVQAGGSLRLSCAASGYIIRAYAMGWYRQAHGKERELVAAISSRGGSTYYADSVKGRFTISRDNAKNTVYLQMNSLKPEDTAVYYCAAAYRQPYIGYGYWGQGTQVTVSS” reads “high polyreactivity”; that for “QGQLVESGGGLVQAGGSLRLTCAASGSIFYVYDIGWYRPAPGKERELVANIRDGGITYADSVKGRFTISRDNAKYTVYLQMNSLKPEDTAVYYCARDDTSPGYGDQSSNAAYYYWGQGTQVTVSS”, “low polyreactivity”. The result for “QGQLVESGGGLVQGGGSLRFSCAASGITFQRYALGGYRQAPGKDRALVAAIRRSGTSTYYADSVKGRFPITRHNAKNPVHLQMNSLKPEDTAVKYCAAGSYPTEGSKYGYWGQGTQVTGSS” reads “high polyreactivity”. As to “QGQLVESGGRLVQAGGSLRLSCAASGFIFDAYAMGWYRQAPWKERELVAAIDYSGGNTYYADSVTGRFTISRDNAKNTVYLQMNSLTPEDTAVYYCNADYAGSFWSREYDYWGQGTQVTVSS”, the “polyreactivity (PSR sort gate)” value is given as “low polyreactivity”. The result for “QGQLVESGVGLVQAGGSLRLSCAASGLTFSWYAMGWYRQAPGKERELVAVITTSGGSTYYSDSVKGRFTISRDNAKNTVYLQMNSLKPEDTAVYYCAVGVPSWEFDYWGQGTHVTVSS” reads “low polyreactivity”; that for “QGQLVESWGGLVQAGGSLRLICAASGFNLGRYAKGWYRQAPGKERELVAAISIGGRTNYADSVKERFTISRDNSKTSVYLHLKSLKPEVTAVYYSAADVRGSAYTTGDYWGQGTQVTVTS”, “low polyreactivity”. For the sequence “QGQLVETGGGLVQAGGSLRLSCAASGRIFDDNAMGWYRQAPGKERELVASITVSTGSTYYADSVKGRFTISRDNAKNTVYLKMNSLKPEDTAVYYCAKDNSLPDYDYWGQGSQVTVSS”, the “polyreactivity (PSR sort gate)” value is recorded as “low polyreactivity”.

Turning to “QGQRVESGGGLVQAGGSLRLSCAASGFIFSYYTMGWYRQAPGKERELVAAISSTGRTNYADSVKGRFTISRDNAKHTVYLQMNSLKPDDTAFYYCNAAKLSYGPWRGYYKLDVWGQGTQVTVSS”, the “polyreactivity (PSR sort gate)” value is on record as “high polyreactivity”. The result for “QGQRVESGGGLVQAGGSLRLSCAASGRIFTFYAMGWYRPAPGKERELVAAITWGDGSTYYADSVKGRFTISRDNAKNTVYLQMNSLKPEDTAVYYCNKTYIDTTVYVVIMDYWGQGTQVTVSS” reads “low polyreactivity”; that for “QGQRVESGGGLVQAGGSLRLSCAASGRIFTQYAMGWYRQAPGKARELVAASNASDGSTYADSVKGRFTISRDNAKNTVYIQINSLKPEDTAVYYCNVTGGPYDFTRWSEFDHWGQGTHVTVSS”, “low polyreactivity”.

The values above are taken from the nanobody polyreactivity screen of Harvey et al. (2022).
